The record followed here is US20060269550A1 (published 2006).

First the molecules themselves.
B3: anti-hGhrelin Fab 2291 (Fab, V domains shown)
VH: EIQLQQSGAELMKPGASVKLSCKATGYTFTGYWIEWAKQRPGHGLEWIGEILPGSGSTNYNEKFKGKATFTADTSSNTANMQLSSLTTEDSAIYYCARYPQFRLRRERIAYWGQGTLVTVSV
VL: DLVLTQSPASLAVSLGQRATISCRASKSVSTSGYSYMHWYQQKPGQPPKLLIYLASNLEPGVPARFSGSGSGTDFTLNIHPVEEEDAATYYCQHSRELPYTFGAGTKLELKR
notes: Mouse Fab, kappa light chain
B5: Ghrelin (1-8), the first eight amino acids of human ghrelin acylated, via an ester linkage, with an octanoyl group on the serine at position 3 (peptide)
peptide: GSS(Octanoyl)FLSPE
notes: also called human ghrelin amino acids 1-8 acylated with octanoic acid

Where no end group is shown, it is not given here. The star is where a group is joined. Octanoyl = CCCCCCCC(=O)*

Assay [1] concerns the target T1, rat ghrelin (full length, acylated) (rat, UniProt Q9QYH7 24-51, acylated (group and position not restated for the rat peptide)).
T1 construct: mature; the assay used the full-length ghrelin peptide
T1 peptide (looked up): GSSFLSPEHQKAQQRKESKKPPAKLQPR
Nature of the assay: SPR, BIAcore 2000, 25 C; Fab captured by goat anti-mouse kappa, rat ghrelin as analyte; koff/kon, average of three. As to the method: (§1) The BIAcore® utilizes the optical properties of surface plasmon resonance to detect alterations in protein concentration of interacting molecules within a dextran biosensor matrix. Except where noted, all reagents and materials were purchased from BIAcore® AB (Upsala, Sweden). All measurements were performed at 25° C. Samples containing rat or human ghrelin (full length, acylated) were dissolved in HBS-EP buffer (150 mM sodium chloride, 3 mM EDTA, 0.005% (w/v) surfactant P-20, and 10 mM HEPES, pH 7.4). A capture antibody, goat anti-mouse Kappa (Southern Biotechnology, Inc), was immobilized onto flow cells using amine-coupling chemistry. Flow cells (1-4) were activated for 7 minutes with a 1:1 mixture of 0.1 M N-hydroxysuccinimide and 0.1 M 3-(N,N-dimethylamino)propyl-N-ethylcarbodiimide at a flow rate of 10 μl/min. Goat anti-mouse Kappa (30 μg/mL in 10 mM sodium acetate, pH 4.5) was manually injected over all 4 flow cells at a flow rate of 10 μL/min. The surface density was monitored and additional goat anti-mouse Kappa was injected if needed to individual cell until all flow cells reach a surface density of 4500-5000 response units (RU). Surfaces were blocked with a 7 minute injection of 1 M ethanolamine-HCl, pH 8.5(10 μL/min). To ensure complete removal of any noncovalently bound goat anti-mouse Kappa, 15 μL of 10 mM glycine, pH 1.5 was injected twice. Running buffer used for kinetic experiments contained 10 mM HEPES, pH 7.4, 150 mM NaCl, 0.005% P20.
(§2) Collection of kinetic binding data was performed at maximum flow rate (100 μL/min) and a low surface density to minimize mass transport effects.

Assay [2] has as its target B5. Nature of the assay: inferred by the filing from inhibition of the analog in the FLPR calcium assay.
For assay [3], the target named is T2, full-length human ghrelin acylated with an octanoyl group on the serine at position 3 (human, n-octanoyl group on Ser 3).
T2 construct: also called hGhrelin; acylated hGhrelin
T2 sequence (peptide, as listed by the source): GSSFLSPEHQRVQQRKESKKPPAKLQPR
The assay can be described thus: SPR, BIAcore 2000, 25 C; Fab captured by goat anti-mouse kappa, ghrelin as analyte; koff/kon, average of three. As to the method:
as §1, §2

In assay [4] the target is T2, full-length human ghrelin acylated with …. The assay can be described thus: cell-based or functional assay.
The target in assay [5] is B3. The assay can be described thus: competitive ELISA; competitor at 1 µg/ml preincubated with Fab 2291 0.1 µg/ml, OD of Fab bound to BSA-hGhrelin wells. As to the method: (§3) Each well of a 96-well plate was coated with 60 μl BSA-hGhrelin antigen (i.e., BSA conjugated, full-length, acylated human ghrelin, 2 μg/ml in carbonate buffer, pH 9.6). The plate was incubated at 4° C. overnight. The wells were aspirated and washed twice with washing buffer (20 mM Tris-Cl, pH 7.4, 0.15 M NaCl, 0. 1% Tween 20). Compounds (i.e., human ghrelin or ghrelin analogs) were diluted into antibody solution. The antibody solution was mouse-anti-human ghrelin Fab. The ghrelin competitor concentration was varied as listed in Tables 2 and 3 below, but the Fab-concentration was kept constant at 0.1 μg/ml in blocking solution (10 mg/ml BSA in wash buffer). After a 1 hour incubation at room temperature, 50 μl of compound-antibody solution was added to BSA-hGhrelin coated wells in triplicate. The plates were incubated for 1 hour at room temperature. The wells were then washed three times with washing buffer.
(§4) Peroxidase-conjugated secondary antibody (50 μl goat anti-mouse kappa HRP (Southern Biotech), diluted 1:2000 in blocking buffer) was added to each well and incubated for 1 hour at room temperature. The wells were then washed 4 times with washing buffer. Fifty microliters of chromogenic substrate (i.e., OPD substrate) was added to each well and allowed to develop at room temperature for 10 minutes. […] The absorbance of the wells was read at 490 nm. […]

In assay [6] the target is B3. The assay can be described thus: competitive ELISA; competitor at 0.2 µg/ml preincubated with Fab 2291 0.1 µg/ml, OD of Fab bound to BSA-hGhrelin wells. As to the method:
as §3, §4

Assay [7] addresses B3. Nature of the assay: competitive ELISA; competitor at 5 µg/ml preincubated with Fab 2291 0.1 µg/ml, OD of Fab bound to BSA-hGhrelin wells. As to the method: as §3, §4

B1: anti-hGhrelin Fab 2891 (Fab, V domains shown)
VH: EIQLQQSGAELMKPGASVKLSCKATGYTFTGYWIEWVKQRPGHGLEWIGEILPGSGSTNYNEKFKGKATFTADTSSNTANMQLSSLTTEDSAIYYCARYPQFRLRRERIAYWGQGTLVTVSV
VL: DLVLTQSPASLAVSLGQRATISCRASKSVSTSGYSYMHWYQQKPGQPPKLLIYLASNLESGVPARFSGSGSGTDFTLNIHPVEEEDAATYYCQHSRELPYTFGAGTKLELKR
notes: Mouse Fab, kappa light chain
Take B1: the Kd worked out at 1.16 nM in assay [1] and 1.01 nM in assay [3]. The binding result in assay [2] is recorded as “binds”. Further, the “IC50 (nM), FLPR calcium assay on AV12 cells expressing human GHS-R1a” value (from here on “IC50 (nM), FLPR calcium assay”) in assay [4] worked out at 0.9 nM.

B2: anti-hGhrelin Fab 2211 (Fab, V domains shown)
VH: EIQLQQSGAELMRPGASVKLSCKATGYTFTGYWIEWVKQRPGHGLEWIGEILPGSGSTNYNEKFKGKATFTADTSSNTANMQLSSLTTEDSAIYYCARYPQFGLRRERIAYWGQGTLVTVSV
VL: DLVLTQSPASLAVSLGQRATISCRASKSVSTSGYSYMHWYQQKPGQPPKLLIYLASNLESGVPARFSGSGSGTDFTLNIHPVEEEDAATYYCQHSRELPYTFGAGTKLELKR
notes: Mouse Fab, kappa light chain
Take B2: the equilibrium dissociation constant (Kd) in assay [1] turned out to be 5.42 nM; in assay [3] it was 3.38 nM. The binding result in assay [2] is on record as “binds”. Besides, the “IC50 (nM), FLPR calcium assay” value in assay [4] stood at 1.9 nM.
B3: the figures for the Kd in assay [1] and in assay [3] were 1.68 nM and 1.08 nM, respectively. For the same molecule, the binding result in assay [2] was “binds”. Also, the “IC50 (nM), FLPR calcium assay” value in assay [4] was found to be 0.8 nM.

B4: anti-hGhrelin Fab 1111 (Fab, V domains shown)
VH: EIQLQQSGAELMKPGASVKLSCKATGYIFTGYWIEWVKQRPGHGLEWIGEILPGSGSTNYNEKFKGKATFTADTSSNTANMQLSSLTTEDSAIYYCARYPQFRLRRERIAYWGQGTLVTVSV
VL: DLVLTQSPASLAVSLGQRATISCRASKSVSTSGYSYMHWYQQKPGQPPKLLIYLASNLESGVPARFSGSGSGTDFTLNIHPVEEEDAATYYCQHSRELPYTFGAGTKLELKR
notes: Mouse Fab from an Omniclonal library (immunised C57Bl/6 mice); kappa light chain (detected or captured with goat anti-mouse kappa)
With B4, the figures for the Kd in assay [1] and in assay [3] were 1.14 nM and 1.04 nM, respectively. The binding result in assay [2] was “binds”. For the same molecule, the “IC50 (nM), FLPR calcium assay” value in assay [4] came to 1.1 nM.
As for B5, the “Ave. OD” value in assay [5] was 0.127 OD; in assay [6], 0.399 OD; in assay [7] it was 0.065 OD.
